Source: CN110903386A (INST MILITARY MEDICINE ACADEMY MILITARY SCIENCES PLA, dated 2020)

Biological target: 基孔肯雅病毒E2蛋白 (基孔肯雅病毒标准株S27, UniProt Q8JUX5 326-748)
Experiment: cell-based or functional assay

基孔肯雅病毒E2蛋白, sequence (Q8JUX5 326-748 limits assumed): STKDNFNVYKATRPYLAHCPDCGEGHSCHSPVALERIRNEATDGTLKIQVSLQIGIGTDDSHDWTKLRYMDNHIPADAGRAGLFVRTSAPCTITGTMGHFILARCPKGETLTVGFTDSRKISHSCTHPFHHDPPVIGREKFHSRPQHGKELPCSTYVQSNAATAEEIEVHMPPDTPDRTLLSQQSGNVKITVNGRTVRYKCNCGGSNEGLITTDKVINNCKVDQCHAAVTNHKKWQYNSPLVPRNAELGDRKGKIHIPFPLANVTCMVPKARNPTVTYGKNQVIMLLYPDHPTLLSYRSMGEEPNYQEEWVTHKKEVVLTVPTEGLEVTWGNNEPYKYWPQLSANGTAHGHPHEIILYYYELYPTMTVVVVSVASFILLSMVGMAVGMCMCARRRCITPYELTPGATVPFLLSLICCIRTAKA

B1: 抗基孔肯雅病毒全人源单克隆抗体8D1 (antibody, human IgG1, kappa, V domains shown)
VH: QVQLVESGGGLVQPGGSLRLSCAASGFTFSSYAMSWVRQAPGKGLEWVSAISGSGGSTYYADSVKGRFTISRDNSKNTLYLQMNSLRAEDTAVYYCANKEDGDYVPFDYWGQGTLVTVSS
VL: DIVMTQSPATLSASVGDRVTITCRASQSISSYLNWYQQKPGKAPKLLIYAASSLQSGVPSRFSGSGSGTDFTLTISSLQPEDFATYYCQQSYFFGPGTKVDIKR
**Q.** B1 was tested. Which “IC50, Vero细胞中和实验 (结晶紫染色, 细胞活率)” value did it give?
**A.** 0.12 µg/mL
